Measured values: US20250145718A1 (ABL BIO, published 2025)
Numbering of substitutions follows the chain as printed. In names and notes the source's numbering stands. Read-outs that look alike come from different tables or passages of the source. Values belong to the binder of their own block, whether it stands above or below them.

Tests used:
[1] = molecular target: T1, 4-1BB expressed on Jurkat cells (4-1BB-Jurkat cells; GloResponse NFkB-luc2/4-1BB Jurkat cell line) (human, UniProt Q07011 24-255); assay: cell-based or functional assay
[2] = molecular target: T2, human PD-L1-Fc protein (Sinobio, 10084-H02H) (human, UniProt Q9NZQ7 19-239); assay: DACE (dual antigen capture ELISA): plate coated with human PD-L1-Fc, then bispecific, then human 4-1BB-His, anti-His HRP
T2 construct: Purchased reagent; not shown: Fc part of the purchased fusion
Description: (§1) Briefly, microtiter plates were coated with 100 ng/well of human PD-L1-Fc protein (Sinobio, 10084-H02H) in PBS at 4° C. overnight, then blocked with 100 μl/well of 1% BSA for 2 hours at 37° C. Three-fold dilutions of each of the BsAbs starting from 100 nM were added to each well and incubated for 2 hours at 37° C. The plates were washed with PBS/Tween and then incubate with 50 ng/well of human 4-1BB-His protein (Sinobio, 16498-H08H) in 1% BSA for 1 hour at 37° C. The plates were washed with PBS/Tween and then incubate with Anti-His HRP (Roche, Cat: 11965085001) for 1 hour at 37° C. After washing, the plates were developed with TMB substrate and analyzed by spectrophotometer at OD 450-650 nm.

[3] = molecular target: T2, human PD-L1-Fc protein (Sinobio, …); assay: DACE after incubation in human serum for 3, 7, 14 days at 37 C
Description: as §1, with “Binding activity was analyzed to DACE (Dual antigen captured ELISA) test. Briefly,” for “Briefly,”

[4] = molecular target: T1, 4-1BB expressed on Jurkat cells …; assay: cell-based or functional assay; remark: listed apart in the source
[5] = molecular target: T3, human 4-1BB-His protein (Sinobio, 16498-H08H) (human, UniProt Q07011 24-186); assay: DACE after incubation in human serum for 3, 7, 14 days at 37 C
T3 construct: Purchased reagent; not shown: His tag of the purchased protein
Description: as §1, with “Binding activity was analyzed to DACE (Dual antigen captured ELISA) test. Briefly,” for “Briefly,”

[6] = molecular target: T3, human 4-1BB-His protein (Sinobio, …); assay: DACE (dual antigen capture ELISA): bispecific captured on coated human PD-L1-Fc binds soluble human 4-1BB-His, detected with anti-His HRP
Description: as §1

[7] = molecular target: T2, human PD-L1-Fc protein (Sinobio, …); assay: DACE (dual antigen capture ELISA): bispecific titrated on coated human PD-L1-Fc; signal also needs binding of human 4-1BB-His (anti-His HRP)
Description: as §1

[8] = molecular target: T2, human PD-L1-Fc protein (Sinobio, …); assay: DACE after incubation in human serum at 37 C for 0, 3, 7 or 14 days: bispecific titrated on coated human PD-L1-Fc; signal also needs binding of human 4-1BB-His (anti-His HRP)
Description: as §1, with “Binding activity was analyzed to DACE (Dual antigen captured ELISA) test. Briefly,” for “Briefly,”

[9] = molecular target: PD-L1 (Biacore kinetics, Example 1.5) (UniProt Q9NZQ7 19-238, limits assumed); assay: SPR (Biacore), affinity ranking
[10] = molecular target: T4, human 4-1BB-Fc protein (human, UniProt Q07011 24-186, limits assumed); assay: ELISA, plate coated with human 4-1BB-Fc, detection with anti-human IgG-HRP, OD 450-630 nm
T4 construct: not shown: Fc part of the fusion
Description: To evaluate the antigen binding activity, the antibody candidates were subjected to ELISA test. Briefly, microtiter plates were coated with human 4-1BB-Fc protein at 0.1 μg/ml in PBS, 100 μl/well at 4° C. overnight, then blocked with 100 μl/well of 5% BSA. […] The plates were washed with PBS/Tween and then incubate with goat-anti-human IgG antibody conjugated with Horse Radish Peroxidase (HRP) for 1 hour at RT. After washing, the plates were developed with TMB substrate and analyzed by spectrophotometer at OD 450-630 nm.

[11] = molecular target: T1, 4-1BB expressed on Jurkat cells …; assay: cell-based or functional assay; remark: listed apart in the source
[12] = molecular target: T5, 4-1BB (Octet Red 96 kinetics, Example 2.2(3)) (human, UniProt Q07011 24-186, limits assumed); assay: BLI (Octet Red 96), affinity ranking
T5 construct: also called human 4-1BB
Description: To explore the binding kinetics of the humanized antibody, this example performed the affinity ranking by using Octet Red 96.

T1 sequence (Q07011 24-255 limits assumed): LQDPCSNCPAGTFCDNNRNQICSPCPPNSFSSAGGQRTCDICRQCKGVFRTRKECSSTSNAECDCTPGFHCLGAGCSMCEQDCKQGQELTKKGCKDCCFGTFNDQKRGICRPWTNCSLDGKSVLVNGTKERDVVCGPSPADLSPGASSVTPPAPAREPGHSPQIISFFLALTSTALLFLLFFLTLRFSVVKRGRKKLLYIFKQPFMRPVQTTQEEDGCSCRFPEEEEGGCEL
Chain of PD-L1 (Biacore kinetics, Example 1.5) (Q9NZQ7 19-238 limits assumed): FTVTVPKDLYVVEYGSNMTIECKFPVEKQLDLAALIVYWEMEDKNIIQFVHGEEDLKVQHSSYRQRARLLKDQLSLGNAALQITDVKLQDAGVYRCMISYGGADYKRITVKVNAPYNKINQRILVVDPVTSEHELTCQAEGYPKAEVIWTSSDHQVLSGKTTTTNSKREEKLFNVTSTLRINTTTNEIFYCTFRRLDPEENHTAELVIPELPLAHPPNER
T2 sequence (Q9NZQ7 19-239): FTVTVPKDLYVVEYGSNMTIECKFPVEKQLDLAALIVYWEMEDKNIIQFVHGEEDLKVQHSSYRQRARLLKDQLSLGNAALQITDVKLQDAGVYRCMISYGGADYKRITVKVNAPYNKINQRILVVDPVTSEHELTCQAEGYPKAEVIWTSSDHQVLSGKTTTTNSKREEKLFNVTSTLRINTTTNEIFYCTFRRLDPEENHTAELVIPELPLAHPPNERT

- EC50 (read off the curve), NFkB-luc2/4-1BB Jurkat reporter with PD-L1 positive target cells [1]: ~0.1 nM
- binding result [2]: binds
B1: ABLPNB.03 (H12x41B02; anti-PD-L1 H12 in IgG form and anti-4-1BB 41B02 in scFv form) (bispecific antibody)
heavy: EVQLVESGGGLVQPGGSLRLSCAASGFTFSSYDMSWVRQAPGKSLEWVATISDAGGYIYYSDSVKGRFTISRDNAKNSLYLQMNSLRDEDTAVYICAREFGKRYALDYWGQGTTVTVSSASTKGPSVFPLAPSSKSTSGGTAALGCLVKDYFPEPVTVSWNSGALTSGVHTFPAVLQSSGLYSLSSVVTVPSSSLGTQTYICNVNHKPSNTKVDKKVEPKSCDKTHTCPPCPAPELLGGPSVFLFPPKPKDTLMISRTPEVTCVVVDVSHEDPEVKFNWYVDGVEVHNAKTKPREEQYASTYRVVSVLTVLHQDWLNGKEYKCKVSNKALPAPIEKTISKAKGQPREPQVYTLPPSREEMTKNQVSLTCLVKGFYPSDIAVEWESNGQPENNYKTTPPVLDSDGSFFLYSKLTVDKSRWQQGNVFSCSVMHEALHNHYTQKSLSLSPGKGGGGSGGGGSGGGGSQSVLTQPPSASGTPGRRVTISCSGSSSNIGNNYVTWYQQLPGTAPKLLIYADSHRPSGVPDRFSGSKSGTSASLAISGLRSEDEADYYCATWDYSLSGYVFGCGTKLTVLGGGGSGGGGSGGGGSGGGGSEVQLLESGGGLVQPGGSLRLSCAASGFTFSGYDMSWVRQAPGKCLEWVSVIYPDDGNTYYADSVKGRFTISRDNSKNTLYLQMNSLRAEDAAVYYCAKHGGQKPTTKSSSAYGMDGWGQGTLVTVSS
light: DIQMTQSPSSLSASVGDRVTITCKASQDVTPAVAWYQQKPGKAPKLLIYSTSSRYTGVPSRFSGSGSGTDFTFTISSLQPEDIATYYCQQHYTTPLTFGQGTKLEIKRTVAAPSVFIFPPSDEQLKSGTASVVCLLNNFYPREAKVQWKVDNALQSGNSQESVTEQDSKDSTYSLSSTLTLSKADYEKHKVYACEVTHQGLSSPVTKSFNRGEC
notes: IgG x scFv form, IgG1 N297A backbone

- EC50 (read off the curve), NFkB-luc2/4-1BB Jurkat reporter with PD-L1 positive target cells [4]: ~0.09 nM
- binding result [3]: binds
B3: ABLPNB.08 (B6x41B01.04; anti-PD-L1 B6 in IgG form and anti-4-1BB 41B01.04 in scFv form) (bispecific antibody)
heavy: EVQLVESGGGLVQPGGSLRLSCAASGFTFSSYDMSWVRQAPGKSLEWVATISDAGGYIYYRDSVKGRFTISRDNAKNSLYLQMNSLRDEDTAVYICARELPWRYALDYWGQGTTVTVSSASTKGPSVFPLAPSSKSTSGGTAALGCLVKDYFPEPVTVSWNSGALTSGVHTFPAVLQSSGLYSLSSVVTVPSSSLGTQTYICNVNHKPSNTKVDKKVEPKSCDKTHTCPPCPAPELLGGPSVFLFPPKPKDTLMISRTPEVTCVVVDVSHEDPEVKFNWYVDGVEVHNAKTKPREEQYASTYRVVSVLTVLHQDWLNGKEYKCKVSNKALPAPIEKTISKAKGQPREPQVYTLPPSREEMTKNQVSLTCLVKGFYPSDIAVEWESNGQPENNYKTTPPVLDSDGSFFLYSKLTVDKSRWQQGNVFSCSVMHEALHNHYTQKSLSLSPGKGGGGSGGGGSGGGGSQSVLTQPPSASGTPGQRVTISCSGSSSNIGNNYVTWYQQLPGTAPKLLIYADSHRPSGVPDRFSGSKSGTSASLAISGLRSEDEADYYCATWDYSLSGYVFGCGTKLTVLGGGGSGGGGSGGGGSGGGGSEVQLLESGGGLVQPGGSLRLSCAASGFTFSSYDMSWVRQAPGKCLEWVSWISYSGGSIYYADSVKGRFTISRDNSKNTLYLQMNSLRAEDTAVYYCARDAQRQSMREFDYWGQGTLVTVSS
light: B1 light
notes: as for B1

- binding result [3]: binds
- binding result [5]: binds
B4: ABLPNB.06 (anti-PD-L1 B6 in IgG form and anti-4-1BB 41B01.02 in scFv form) (bispecific antibody)
heavy: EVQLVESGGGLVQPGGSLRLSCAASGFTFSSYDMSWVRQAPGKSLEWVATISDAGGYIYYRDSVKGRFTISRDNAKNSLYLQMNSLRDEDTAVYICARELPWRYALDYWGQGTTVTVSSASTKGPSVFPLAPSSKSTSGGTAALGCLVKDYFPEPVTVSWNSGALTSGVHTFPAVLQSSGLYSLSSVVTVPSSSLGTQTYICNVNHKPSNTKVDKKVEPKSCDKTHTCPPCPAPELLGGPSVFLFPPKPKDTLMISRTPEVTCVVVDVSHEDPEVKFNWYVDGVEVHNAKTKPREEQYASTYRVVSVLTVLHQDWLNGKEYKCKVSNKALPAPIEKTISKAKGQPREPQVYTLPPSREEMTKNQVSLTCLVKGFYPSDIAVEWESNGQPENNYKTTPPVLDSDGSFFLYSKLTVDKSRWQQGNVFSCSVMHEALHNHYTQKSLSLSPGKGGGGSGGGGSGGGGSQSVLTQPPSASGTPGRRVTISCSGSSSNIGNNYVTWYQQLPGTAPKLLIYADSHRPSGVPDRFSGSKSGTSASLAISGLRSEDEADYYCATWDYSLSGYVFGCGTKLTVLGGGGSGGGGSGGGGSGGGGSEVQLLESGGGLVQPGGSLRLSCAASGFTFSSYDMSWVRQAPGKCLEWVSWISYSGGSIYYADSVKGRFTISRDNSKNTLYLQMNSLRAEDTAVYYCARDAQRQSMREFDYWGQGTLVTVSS
light: B1 light
notes: as for B1

- EC50 (read off the curve) [7]: ~0.9 nM
- EC50 (read off the curve) [8]: ~0.2 nM
- EC50 (read off the curve), NFkB-luc2/4-1BB Jurkat reporter with PD-L1 positive target cells [4]: ~0.06 nM
B6: ABLPNB.07 (B6x41B01.03; anti-PD-L1 B6 in IgG form and anti-4-1BB 41B01.03 in scFv form) (bispecific antibody)
heavy: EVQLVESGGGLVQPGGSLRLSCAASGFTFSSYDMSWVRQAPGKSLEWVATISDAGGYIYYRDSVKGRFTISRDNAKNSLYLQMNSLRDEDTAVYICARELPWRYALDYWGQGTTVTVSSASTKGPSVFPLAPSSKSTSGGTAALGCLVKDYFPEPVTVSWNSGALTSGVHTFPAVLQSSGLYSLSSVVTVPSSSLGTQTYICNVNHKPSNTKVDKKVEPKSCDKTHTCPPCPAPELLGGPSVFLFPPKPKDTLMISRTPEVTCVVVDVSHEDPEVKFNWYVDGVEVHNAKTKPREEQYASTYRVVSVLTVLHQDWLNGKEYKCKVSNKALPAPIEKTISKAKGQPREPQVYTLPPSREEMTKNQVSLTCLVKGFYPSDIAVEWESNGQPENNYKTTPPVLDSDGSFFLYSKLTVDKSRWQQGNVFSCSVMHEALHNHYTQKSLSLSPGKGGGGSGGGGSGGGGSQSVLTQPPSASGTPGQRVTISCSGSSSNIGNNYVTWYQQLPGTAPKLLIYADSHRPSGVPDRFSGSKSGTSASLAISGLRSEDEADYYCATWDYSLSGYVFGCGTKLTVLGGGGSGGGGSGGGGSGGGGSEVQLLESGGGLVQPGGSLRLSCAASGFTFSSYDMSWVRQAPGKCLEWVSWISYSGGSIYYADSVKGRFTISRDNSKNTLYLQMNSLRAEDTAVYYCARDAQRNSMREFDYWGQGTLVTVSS
light: B1 light
notes: as for B1

Second part, the binder before the results:

B2: ABLPNB.05 (B6x41B01.01; anti-PD-L1 B6 in IgG form and anti-4-1BB 41B01.01 in scFv form) (bispecific antibody)
heavy: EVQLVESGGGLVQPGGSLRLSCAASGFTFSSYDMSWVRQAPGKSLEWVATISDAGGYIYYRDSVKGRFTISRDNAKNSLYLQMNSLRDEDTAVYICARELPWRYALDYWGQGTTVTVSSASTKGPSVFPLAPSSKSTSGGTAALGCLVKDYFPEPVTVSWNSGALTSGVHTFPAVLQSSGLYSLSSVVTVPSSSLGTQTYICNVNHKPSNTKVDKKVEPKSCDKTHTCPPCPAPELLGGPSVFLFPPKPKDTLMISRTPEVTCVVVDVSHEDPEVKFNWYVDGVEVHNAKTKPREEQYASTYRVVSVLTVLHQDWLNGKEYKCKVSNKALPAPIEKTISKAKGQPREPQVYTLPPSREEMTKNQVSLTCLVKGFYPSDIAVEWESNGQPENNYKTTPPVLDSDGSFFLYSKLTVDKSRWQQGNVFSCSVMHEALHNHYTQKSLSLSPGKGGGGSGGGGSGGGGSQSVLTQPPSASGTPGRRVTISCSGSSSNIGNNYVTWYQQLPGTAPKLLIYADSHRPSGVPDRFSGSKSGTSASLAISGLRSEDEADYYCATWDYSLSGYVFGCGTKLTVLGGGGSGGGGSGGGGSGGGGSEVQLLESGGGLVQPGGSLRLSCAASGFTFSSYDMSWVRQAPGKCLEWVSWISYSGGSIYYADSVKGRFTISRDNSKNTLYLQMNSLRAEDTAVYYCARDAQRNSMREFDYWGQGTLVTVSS
light: B1 light
notes: as for B1
- binding result [3]: binds

B5: ABLPNB.01 (H12x41B01; anti-PD-L1 H12 in IgG form and anti-4-1BB 41B01 in scFv form) (bispecific antibody)
heavy: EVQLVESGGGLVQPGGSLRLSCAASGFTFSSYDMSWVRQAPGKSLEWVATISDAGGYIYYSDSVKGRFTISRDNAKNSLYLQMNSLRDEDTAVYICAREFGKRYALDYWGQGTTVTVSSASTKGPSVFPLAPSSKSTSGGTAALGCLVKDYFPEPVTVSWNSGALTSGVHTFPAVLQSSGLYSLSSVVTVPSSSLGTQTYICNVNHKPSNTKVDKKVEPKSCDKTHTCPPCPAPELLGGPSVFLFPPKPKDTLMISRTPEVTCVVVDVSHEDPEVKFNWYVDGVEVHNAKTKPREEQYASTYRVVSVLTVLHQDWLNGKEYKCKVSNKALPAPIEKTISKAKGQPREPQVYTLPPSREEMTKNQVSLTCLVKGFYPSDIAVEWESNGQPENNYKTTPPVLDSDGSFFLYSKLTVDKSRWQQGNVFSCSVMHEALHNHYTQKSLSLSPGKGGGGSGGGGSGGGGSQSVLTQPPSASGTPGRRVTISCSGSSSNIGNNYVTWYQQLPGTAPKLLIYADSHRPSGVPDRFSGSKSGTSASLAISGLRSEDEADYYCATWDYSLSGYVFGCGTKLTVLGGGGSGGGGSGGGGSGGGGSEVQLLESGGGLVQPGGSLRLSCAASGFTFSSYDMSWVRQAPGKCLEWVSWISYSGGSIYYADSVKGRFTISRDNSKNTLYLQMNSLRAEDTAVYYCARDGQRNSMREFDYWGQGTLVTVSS
light: B1 light
notes: IgG x scFv form; The heavy component is the H12 heavy chain (IgG1 N297A), a linker, and the scFv (VL-linker-VH, disulfide VL103-VH44)
- binding result [6]: binds
- binding result [2]: binds

B7: ABLPNB.04 (B6x41B01; anti-PD-L1 B6 in IgG form and anti-4-1BB 41B01 in scFv form) (bispecific antibody)
heavy: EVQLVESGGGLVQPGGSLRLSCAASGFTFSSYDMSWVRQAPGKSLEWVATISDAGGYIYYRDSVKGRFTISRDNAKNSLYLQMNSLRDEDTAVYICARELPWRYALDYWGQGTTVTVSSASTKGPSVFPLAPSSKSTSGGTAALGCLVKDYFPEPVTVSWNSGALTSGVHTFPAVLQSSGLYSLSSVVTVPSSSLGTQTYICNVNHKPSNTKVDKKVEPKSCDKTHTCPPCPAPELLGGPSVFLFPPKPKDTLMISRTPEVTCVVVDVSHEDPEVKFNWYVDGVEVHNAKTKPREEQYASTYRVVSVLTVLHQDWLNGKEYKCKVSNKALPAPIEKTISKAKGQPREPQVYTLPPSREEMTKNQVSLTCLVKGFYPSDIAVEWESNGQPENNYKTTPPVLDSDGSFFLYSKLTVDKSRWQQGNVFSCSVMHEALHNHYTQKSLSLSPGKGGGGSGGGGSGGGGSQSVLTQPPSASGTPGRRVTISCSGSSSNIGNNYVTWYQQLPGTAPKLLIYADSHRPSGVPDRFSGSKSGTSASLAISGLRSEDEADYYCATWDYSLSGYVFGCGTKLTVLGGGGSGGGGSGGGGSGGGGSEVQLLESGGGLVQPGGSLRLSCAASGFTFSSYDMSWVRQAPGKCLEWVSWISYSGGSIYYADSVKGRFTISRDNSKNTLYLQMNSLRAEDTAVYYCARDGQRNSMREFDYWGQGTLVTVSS
light: B1 light
notes: as for B1
- EC50 (read off the curve) [7]: ~0.6 nM
- binding result [6]: binds

B8: H12 (Hu1210-41; Hu1210 VH.4d x Hu1210 VK.1) (antibody, V domains shown)
VH: EVQLVESGGGLVQPGGSLRLSCAASGFTFSSYDMSWVRQAPGKSLEWVATISDAGGYIYYSDSVKGRFTISRDNAKNSLYLQMNSLRDEDTAVYICAREFGKRYALDYWGQGTTVTVSS
VL: DIQMTQSPSSLSASVGDRVTITCKASQDVTPAVAWYQQKPGKAPKLLIYSTSSRYTGVPSRFSGSGSGTDFTFTISSLQPEDIATYYCQQHYTTPLTFGQGTKLEIK
notes: also called WT (H12)
- Kd [9]: 6.12 nM
- koff [9]: 0.000436 s⁻¹
- kon [9]: 71200 M⁻¹ s⁻¹

B9: B6 (anti-PD-L1 clone derived from Hu1210-41) (antibody, V domains shown)
VH: B8 VH with S61R, F100L, G101P, K102W
VL: B8 VL
- Kd [9]: 4.25 nM
- koff [9]: 0.000418 s⁻¹
- kon [9]: 98300 M⁻¹ s⁻¹

B10: 41B01 (anti-4-1BB monoclonal antibody) (antibody, V domains shown)
VH: EVQLLESGGGLVQPGGSLRLSCAASGFTFSSYDMSWVRQAPGKGLEWVSWISYSGGSIYYADSVKGRFTISRDNSKNTLYLQMNSLRAEDTAVYYCARDGQRNSMREFDYWGQGTLVTVSS
VL: QSVLTQPPSASGTPGRRVTISCSGSSSNIGNNYVTWYQQLPGTAPKLLIYADSHRPSGVPDRFSGSKSGTSASLAISGLRSEDEADYYCATWDYSLSGYVFGGGTKLTVL
notes: Detected with anti-human IgG, so it was tested as a human IgG
- EC50 (read off the curve) [10]: ~0.08 nM
- EC50 (read off the curve), NFkB-luc2/4-1BB Jurkat reporter, Fc-crosslinked antibody [11]: ~4 nM
- Kd [12]: 0.18 nM
- koff [12]: 0.000119 s⁻¹
- kon [12]: 658000 M⁻¹ s⁻¹

B11: 41B02 (anti-4-1BB monoclonal antibody) (antibody, V domains shown)
VH: EVQLLESGGGLVQPGGSLRLSCAASGFTFSGYDMSWVRQAPGKGLEWVSVIYPDDGNTYYADSVKGRFTISRDNSKNTLYLQMNSLRAEDAAVYYCAKHGGQKPTTKSSSAYGMDGWGQGTLVTVSS
VL: B10 VL
notes: Detected with anti-human IgG
- EC50 (read off the curve) [10]: ~0.2 nM
- Kd [12]: 1.01 nM
- koff [12]: 0.000603 s⁻¹
- kon [12]: 595000 M⁻¹ s⁻¹
